Measurements published in patent US20250361288A1 (Gilead, published 2025).
Where two headings read alike, the source gives them in different places.

T1: human HVEM extracellular domain fused with an Fc fragment at the C-terminus (human, UniProt Q92956 39-202)
T1 construct: extracellular domain; Bought; also called hHVEM; not shown: Fc fragment at the C-terminus
T1 sequence (looked up): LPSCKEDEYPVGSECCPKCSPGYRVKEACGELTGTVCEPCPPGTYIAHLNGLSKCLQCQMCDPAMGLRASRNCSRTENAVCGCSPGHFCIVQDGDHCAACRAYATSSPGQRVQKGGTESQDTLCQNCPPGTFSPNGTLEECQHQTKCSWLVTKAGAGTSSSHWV

T2: mouse HVEM extracellular domain fused with an Fc fragment at the C-terminus (mouse, UniProt Q80WM9 39-206, limits assumed)
T2 construct: extracellular domain; Bought; also called mHVEM; not shown: Fc fragment at the C-terminus
T2 sequence (looked up): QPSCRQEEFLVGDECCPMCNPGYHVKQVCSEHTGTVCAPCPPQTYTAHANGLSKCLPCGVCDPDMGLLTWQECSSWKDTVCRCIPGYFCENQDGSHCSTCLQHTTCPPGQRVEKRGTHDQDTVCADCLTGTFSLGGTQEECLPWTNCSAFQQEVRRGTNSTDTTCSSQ


Legend:
[1] = molecular target: T3, mouse LTβR extracellular domain fused with an Fc fragment at the C-terminus (mouse, UniProt P50284 31-223); test: ELISA on coated target-Fc
T3 construct: extracellular domain; Bought; also called mLTβR; not shown: Fc fragment at the C-terminus
Protocol: (§1) Nunc MaxiSorp 96-well plates (Thermofisher) were coated with target proteins (1 μg/ml), and then blocked with 2% BSA-PBS buffer for one hour. Serial dilutions of the LIGHT muteins were added with a maximum concentration of 200 ng/ml. The plates were incubated for one hour, washed four times with PBST, and then incubated with mouse anti-His tag antibody (#105327, Sino Biological) for 1 hour. The plates were further incubated with HRP-conjugated goat anti-mouse secondary antibody (#SSA006, Sino Biological) before being washed three times with PBST and treated with TMB substrate (#34029, ThermoFisher). The plates were read at 450 nm on a SpectraMax M5 microplate reader (Molecule Devices). The ELISA results were analyzed using GraphPad Prism 9.0 software and the EC50s (half maximal effective concentration) were summarized in Table 5-1 and Table 5-2.

[2] = molecular target: T1, human HVEM extracellular domain fused …; test: ELISA on coated target-Fc
Protocol: as §1

[3] = molecular target: T4, human LTβR extracellular domain fused with an Fc fragment at the C-terminus (human, UniProt P36941 31-227); test: ELISA on coated target-Fc
T4 construct: extracellular domain; Bought; also called hLTβR; not shown: Fc fragment at the C-terminus
Protocol: as §1

[4] = molecular target: T2, mouse HVEM extracellular domain fused …; test: phage ELISA
In short: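 Supernatants from fourth-round clones rescued with helper phage were applied to plates coated with 1 μg/ml target for 1 h at room temperature. Bound phage detected with HRP anti-M13 and TMB at OD450; clones were called positive when the target/BSA ratio was >3.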

[5] = molecular target: T3, mouse LTβR extracellular domain fused …; test: ELISA on coated target-Fc; remark: listed apart in the source
Protocol: as §1

[6] = molecular target: T4, human LTβR extracellular domain fused …; test: ELISA on coated target-Fc; remark: listed apart in the source
Protocol: as §1

T3 sequence (P50284 31-223): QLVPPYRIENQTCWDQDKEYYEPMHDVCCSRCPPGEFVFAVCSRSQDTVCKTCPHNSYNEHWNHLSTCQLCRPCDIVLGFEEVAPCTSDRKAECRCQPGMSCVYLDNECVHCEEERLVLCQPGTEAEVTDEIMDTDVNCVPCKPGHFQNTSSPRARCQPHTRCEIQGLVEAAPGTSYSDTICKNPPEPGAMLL
T4 sequence (P36941 31-227): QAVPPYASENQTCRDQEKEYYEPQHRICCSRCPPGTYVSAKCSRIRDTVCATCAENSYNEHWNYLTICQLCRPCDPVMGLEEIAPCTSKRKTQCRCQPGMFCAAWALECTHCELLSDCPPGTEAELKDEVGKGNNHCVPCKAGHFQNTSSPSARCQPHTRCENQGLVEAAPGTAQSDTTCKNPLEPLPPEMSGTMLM

| Binder | binding result [1] | EC50 [2] | EC50 [3] | binding result [4] | EC50 [5] | EC50 [6] | EC50 [1] | binding result [3] |
| --- | --- | --- | --- | --- | --- | --- | --- | --- |
| LIGHT-20 (ligand, Printed mutations: S160A, L220S, E222D; Soluble protein carries an N-terminal His tag) DGPAGSWEQLIQERRSHEVNPAAHLTGANSSLTGSGGPLLWETQLGLAFLRGLSYHDGALVVTKAGYYYIYSKVQLGGVGCPLGLAATITHGLYKRTPRYPEELELLVSQQSPCGRATSSSRVWWDSSFLGGVVHLEAGEKVVVRVSDDRLVRLRDGTRSYFGAFMV | binds | 0.0496 µg/mL | 0.0521 µg/mL | binds | – | – | – | – |
| LIGHT-88 (ligand, Printed mutations: A95T, G150R, S160R, P174L, W198Q, L220S, R228L; Soluble protein carries an N-terminal His tag) DGPAGSWEQLIQERRSHEVNPTAHLTGANSSLTGSGGPLLWETQLGLAFLRGLSYHDGALVVTKAGYYYIYSKVQLRGVGCPLGLARTITHGLYKRTPRYLEELELLVSQQSPCGRATSSSRVWQDSSFLGGVVHLEAGEKVVVRVSDERLVRLLDGTRSYFGAFMV | – | – | – | – | 0.262 nM | 0.264 nM | – | – |
| LIGHT-39 (ligand, Printed mutations: L158P, L166M, L220M; Soluble protein carries an N-terminal His tag) DGPAGSWEQLIQERRSHEVNPAAHLTGANSSLTGSGGPLLWETQLGLAFLRGLSYHDGALVVTKAGYYYIYSKVQLGGVGCPLGPASTITHGMYKRTPRYPEELELLVSQQSPCGRATSSSRVWWDSSFLGGVVHLEAGEKVVVRVMDERLVRLRDGTRSYFGAFMV | – | 0.049 µg/mL | 0.0542 µg/mL | binds | – | – | 0.0239 µg/mL | – |
| LIGHT-27 (ligand, Printed mutations: S160N, T161S, L220S, E222D; Soluble protein carries an N-terminal His tag) DGPAGSWEQLIQERRSHEVNPAAHLTGANSSLTGSGGPLLWETQLGLAFLRGLSYHDGALVVTKAGYYYIYSKVQLGGVGCPLGLANSITHGLYKRTPRYPEELELLVSQQSPCGRATSSSRVWWDSSFLGGVVHLEAGEKVVVRVSDDRLVRLRDGTRSYFGAFMV | – | 0.0504 µg/mL | 0.0827 µg/mL | binds | – | – | 0.0642 µg/mL | – |
| LIGHT-37 (ligand, Printed mutations: A190T, F202Y, K214E; Soluble protein carries an N-terminal His tag) DGPAGSWEQLIQERRSHEVNPAAHLTGANSSLTGSGGPLLWETQLGLAFLRGLSYHDGALVVTKAGYYYIYSKVQLGGVGCPLGLASTITHGLYKRTPRYPEELELLVSQQSPCGRTTSSSRVWWDSSYLGGVVHLEAGEEVVVRVLDERLVRLRDGTRSYFGAFMV | – | 0.037 µg/mL | 0.0434 µg/mL | binds | – | – | 0.0678 µg/mL | – |
| LIGHT-31 (ligand, Printed mutations: S160R, T161S, L220S; Soluble protein carries an N-terminal His tag) DGPAGSWEQLIQERRSHEVNPAAHLTGANSSLTGSGGPLLWETQLGLAFLRGLSYHDGALVVTKAGYYYIYSKVQLGGVGCPLGLARSITHGLYKRTPRYPEELELLVSQQSPCGRATSSSRVWWDSSFLGGVVHLEAGEKVVVRVSDERLVRLRDGTRSYFGAFMV | – | 0.051 µg/mL | 0.0867 µg/mL | binds | – | – | 0.0747 µg/mL | – |
| LIGHT-34 (ligand, Printed mutations: T161S, L220S; Soluble protein carries an N-terminal His tag) DGPAGSWEQLIQERRSHEVNPAAHLTGANSSLTGSGGPLLWETQLGLAFLRGLSYHDGALVVTKAGYYYIYSKVQLGGVGCPLGLASSITHGLYKRTPRYPEELELLVSQQSPCGRATSSSRVWWDSSFLGGVVHLEAGEKVVVRVSDERLVRLRDGTRSYFGAFMV | – | 0.0202 µg/mL | 0.059 µg/mL | binds | – | – | 0.0446 µg/mL | – |
| LIGHT-22 (ligand, Printed mutations: S160G, T161S, L220S; Soluble protein carries an N-terminal His tag) DGPAGSWEQLIQERRSHEVNPAAHLTGANSSLTGSGGPLLWETQLGLAFLRGLSYHDGALVVTKAGYYYIYSKVQLGGVGCPLGLAGSITHGLYKRTPRYPEELELLVSQQSPCGRATSSSRVWWDSSFLGGVVHLEAGEKVVVRVSDERLVRLRDGTRSYFGAFMV | – | 0.0471 µg/mL | 0.0686 µg/mL | binds | – | – | 0.0624 µg/mL | – |
| LIGHT-21 (ligand, Printed mutations: S160G, T161P, L220T; Soluble protein carries an N-terminal His tag) DGPAGSWEQLIQERRSHEVNPAAHLTGANSSLTGSGGPLLWETQLGLAFLRGLSYHDGALVVTKAGYYYIYSKVQLGGVGCPLGLAGPITHGLYKRTPRYPEELELLVSQQSPCGRATSSSRVWWDSSFLGGVVHLEAGEKVVVRVTDERLVRLRDGTRSYFGAFMV | – | 0.0422 µg/mL | 0.0715 µg/mL | binds | – | – | 0.134 µg/mL | – |
| LIGHT-29 (ligand, Printed mutations: S160N, L220S; Soluble protein carries an N-terminal His tag) DGPAGSWEQLIQERRSHEVNPAAHLTGANSSLTGSGGPLLWETQLGLAFLRGLSYHDGALVVTKAGYYYIYSKVQLGGVGCPLGLANTITHGLYKRTPRYPEELELLVSQQSPCGRATSSSRVWWDSSFLGGVVHLEAGEKVVVRVSDERLVRLRDGTRSYFGAFMV | – | 0.0428 µg/mL | 0.0452 µg/mL | binds | – | – | 0.0209 µg/mL | – |
| LIGHT-26 (ligand, Printed mutations: S160H, L220S, E222Q; Soluble protein carries an N-terminal His tag) DGPAGSWEQLIQERRSHEVNPAAHLTGANSSLTGSGGPLLWETQLGLAFLRGLSYHDGALVVTKAGYYYIYSKVQLGGVGCPLGLAHTITHGLYKRTPRYPEELELLVSQQSPCGRATSSSRVWWDSSFLGGVVHLEAGEKVVVRVSDQRLVRLRDGTRSYFGAFMV | – | 0.0484 µg/mL | 0.0727 µg/mL | binds | – | – | 0.0483 µg/mL | – |
| LIGHT-36 (ligand, Printed mutations: H208Y; Soluble protein carries an N-terminal His tag) DGPAGSWEQLIQERRSHEVNPAAHLTGANSSLTGSGGPLLWETQLGLAFLRGLSYHDGALVVTKAGYYYIYSKVQLGGVGCPLGLASTITHGLYKRTPRYPEELELLVSQQSPCGRATSSSRVWWDSSFLGGVVYLEAGEKVVVRVLDERLVRLRDGTRSYFGAFMV | – | 0.137 µg/mL | 0.19 µg/mL | binds | – | – | 0.27 µg/mL | – |
| LIGHT-35 (ligand, Printed mutations: T161S, L220S, E222N; Soluble protein carries an N-terminal His tag) DGPAGSWEQLIQERRSHEVNPAAHLTGANSSLTGSGGPLLWETQLGLAFLRGLSYHDGALVVTKAGYYYIYSKVQLGGVGCPLGLASSITHGLYKRTPRYPEELELLVSQQSPCGRATSSSRVWWDSSFLGGVVHLEAGEKVVVRVSDNRLVRLRDGTRSYFGAFMV | – | 0.0416 µg/mL | 0.0703 µg/mL | binds | – | – | 0.0383 µg/mL | – |
| LIGHT-42 (ligand, Printed mutations: G150R, L220S; Soluble protein carries an N-terminal His tag) DGPAGSWEQLIQERRSHEVNPAAHLTGANSSLTGSGGPLLWETQLGLAFLRGLSYHDGALVVTKAGYYYIYSKVQLRGVGCPLGLASTITHGLYKRTPRYPEELELLVSQQSPCGRATSSSRVWWDSSFLGGVVHLEAGEKVVVRVSDERLVRLRDGTRSYFGAFMV | – | 0.0814 µg/mL | 0.0639 µg/mL | binds | – | – | 0.025 µg/mL | – |
| LIGHT-23 (ligand, Printed mutations: S160G, L220S; Soluble protein carries an N-terminal His tag) DGPAGSWEQLIQERRSHEVNPAAHLTGANSSLTGSGGPLLWETQLGLAFLRGLSYHDGALVVTKAGYYYIYSKVQLGGVGCPLGLAGTITHGLYKRTPRYPEELELLVSQQSPCGRATSSSRVWWDSSFLGGVVHLEAGEKVVVRVSDERLVRLRDGTRSYFGAFMV | – | 0.0588 µg/mL | 0.0892 µg/mL | binds | – | – | 0.0916 µg/mL | – |
| LIGHT-28 (ligand, Printed mutations: S160N, K214E, L227M; Soluble protein carries an N-terminal His tag) DGPAGSWEQLIQERRSHEVNPAAHLTGANSSLTGSGGPLLWETQLGLAFLRGLSYHDGALVVTKAGYYYIYSKVQLGGVGCPLGLANTITHGLYKRTPRYPEELELLVSQQSPCGRATSSSRVWWDSSFLGGVVHLEAGEEVVVRVLDERLVRMRDGTRSYFGAFMV | – | 0.0873 µg/mL | 0.0811 µg/mL | binds | – | – | 0.256 µg/mL | – |
| LIGHT-24 (ligand, Printed mutations: S160G, A190T, L220S; Soluble protein carries an N-terminal His tag) DGPAGSWEQLIQERRSHEVNPAAHLTGANSSLTGSGGPLLWETQLGLAFLRGLSYHDGALVVTKAGYYYIYSKVQLGGVGCPLGLAGTITHGLYKRTPRYPEELELLVSQQSPCGRTTSSSRVWWDSSFLGGVVHLEAGEKVVVRVSDERLVRLRDGTRSYFGAFMV | binds | 0.0632 µg/mL | – | binds | – | – | – | binds |
| LIGHT-25 (ligand, Printed mutations: S160H, L220S; Soluble protein carries an N-terminal His tag) DGPAGSWEQLIQERRSHEVNPAAHLTGANSSLTGSGGPLLWETQLGLAFLRGLSYHDGALVVTKAGYYYIYSKVQLGGVGCPLGLAHTITHGLYKRTPRYPEELELLVSQQSPCGRATSSSRVWWDSSFLGGVVHLEAGEKVVVRVSDERLVRLRDGTRSYFGAFMV | – | 0.0542 µg/mL | – | binds | – | – | 0.0323 µg/mL | binds |
